Changes are numbered by the printed parent chain. Each block holds one binder with its values, some of them ahead of it.
What was measured:
[1] = biological target: T1, TRAIL-R1-hFc (ヒトTRAIL-R1の細胞外領域とヒトIgG1のFc領域とが融合したタンパク質, ALEXIS社製) (human, UniProt O00220 24-239); test: ELISA, purified antibody on plate-coated TRAIL-R1-hFc (Example 4)
T1 construct: extracellular domain; Bought (ALEXIS); not shown: human IgG1 Fc region
T1 sequence (looked up): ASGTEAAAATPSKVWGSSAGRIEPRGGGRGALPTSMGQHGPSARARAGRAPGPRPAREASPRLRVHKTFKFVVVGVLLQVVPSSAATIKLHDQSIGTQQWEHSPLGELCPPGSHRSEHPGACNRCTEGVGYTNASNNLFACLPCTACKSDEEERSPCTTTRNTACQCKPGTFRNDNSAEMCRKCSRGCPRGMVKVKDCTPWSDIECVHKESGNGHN

[2] = biological target: ヒトTRAIL-R2 (細胞表面の受容体; Colo205, U251, Jurkat, 正常ヒト肝実質細胞) (human, UniProt O14763 56-440); test: cell-based or functional assay

binding result [1]: binds
B1: KMTR1抗体 (ハイブリドーマKMTR1, FERM BP-8038 の産生するヒトモノクローナル抗体) (antibody, V domains shown)
VH: EVQLLESGGGLVQPGRSLRLSCAASGFTFSSYAMSWVRQAPGKGLEWVSAISGSGGSRYYADSVKGRFTISRDNSKNTLYLQMNSLRAEDTAVYYCAKESSGWFGAFDYWGQGTLVTVSS
VL: EIVLTQSPDFQSVTPKEKVTITCRASQSIGSSLHWYQQKPDQSPKLLIKYASQSFSGVPSRFSGSGSGTDFTLTINSLEAEDAAAYYCHQSSSLPITFGQGTRLEIK
notes: Human IgG, kappa light chain; Signal peptide limits are predictions, not N-terminal analysis

B2: L-30-10抗体 (ハイブリドーマL-30-10, FERM BP-7700 / FERM BP-7769 の産生するヒト抗TRAIL-R2モノクローナル抗体) (antibody, V domains shown)
VH: QLQLQESGPGLVKPSETLSLTCTVSGGSISSRSNYWGWIRQPPGKGLEWIGNVYYRGSTYYNSSLKSRVTISVDTSKNQFSLKLSSVTVADTAVYYCARLSVAEFDYWGQGILVTVSS
VL: EIVLTQSPATLSLSPGERATLSCRASQSVSSFLAWYQQKPGQAPRLLIYDASNRATGSPARFSGSGSGTDFTLTISSLEPEDFAVYYCQQRSDWPLTFGPGTKVDIK
Jurkat細胞に対するLD50 (48時間) [2]: 0.13 µg/mL | U251細胞に対するLD50 (シスプラチン4μg/ml同時添加, 48時間) [2]: 0.17 µg/mL

B3: E-11-13抗体 (ハイブリドーマE-11-13, FERM BP-7698 / FERM BP-7770 の産生するヒト抗TRAIL-R2モノクローナル抗体) (antibody, V domains shown)
VH: QLQLQESGPGLVKPSETLSLTCTVSGGSIISKSSYWGWIRQPPGKGLEWIGSIYYSGSTFYNPSLKSRVTISVDTSKNQFSLKLSSVTAADTAVYYCARLTVAEFDYWGQGTLVTVSS
VL: B2 VL with S58I, D93N
Jurkat細胞に対するLD50 (48時間) [2]: 0.1 µg/mL | U251細胞に対するLD50 (シスプラチン4μg/ml同時添加, 48時間) [2]: 0.3 µg/mL
